The text below walks through data of US20090202549A1.

This test concerns the target mouse IL-12 (p40/p35 heterodimer) (mouse) (UniProt P43432). As to the kind of experiment: cell-based or functional assay.

Sequence of mouse IL-12 (p40/p35 heterodimer) (mouse) (P43432 23-335, chain 1 of 2): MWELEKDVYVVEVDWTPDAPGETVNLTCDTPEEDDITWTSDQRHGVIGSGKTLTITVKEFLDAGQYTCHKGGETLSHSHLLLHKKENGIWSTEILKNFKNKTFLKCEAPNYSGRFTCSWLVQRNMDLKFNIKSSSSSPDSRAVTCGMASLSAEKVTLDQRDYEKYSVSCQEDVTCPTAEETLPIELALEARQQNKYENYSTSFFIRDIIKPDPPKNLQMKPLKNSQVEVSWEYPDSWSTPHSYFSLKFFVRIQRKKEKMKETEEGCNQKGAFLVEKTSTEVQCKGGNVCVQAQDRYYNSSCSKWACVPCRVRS
Sequence of mouse IL-12 (p40/p35 heterodimer) (mouse) (P43431 23-215, chain 2 of 2, further chain): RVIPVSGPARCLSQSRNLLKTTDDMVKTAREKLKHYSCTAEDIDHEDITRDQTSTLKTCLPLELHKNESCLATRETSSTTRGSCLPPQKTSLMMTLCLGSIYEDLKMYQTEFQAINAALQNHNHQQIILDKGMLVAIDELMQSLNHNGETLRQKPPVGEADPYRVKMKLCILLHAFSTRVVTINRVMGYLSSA

As for “C17.8 (rat anti-mouse IL-12/IL-23p40, IgG2a) (antibody)”, the in vitro neutralization of IL-12 (times (against the anti-p35 mAb)) is 5.
